Data on two molecules can be found in patent CN116265487A (SANYOU BIO INC, dated 2023).

Values joined by “and” are separate entries in the source; they are usually repeats but may differ in a detail not shown here. Equal values may be shown once.

In one test the target is T1, 生物素标记的hANG2-Fc蛋白 (human, biotin-labelled (sites not given)).
T1 construct: also called biotin-hANG2-Fc
In words: FACS blocking of biotin-hANG2-Fc binding to huTie2-HEK293 cells.

The next test addresses T2, 重组蛋白hANG2-His (human, UniProt O15123 19-496).
T2 construct: Made in Expi293 cells; not shown: C-terminal His tag
T2 sequence: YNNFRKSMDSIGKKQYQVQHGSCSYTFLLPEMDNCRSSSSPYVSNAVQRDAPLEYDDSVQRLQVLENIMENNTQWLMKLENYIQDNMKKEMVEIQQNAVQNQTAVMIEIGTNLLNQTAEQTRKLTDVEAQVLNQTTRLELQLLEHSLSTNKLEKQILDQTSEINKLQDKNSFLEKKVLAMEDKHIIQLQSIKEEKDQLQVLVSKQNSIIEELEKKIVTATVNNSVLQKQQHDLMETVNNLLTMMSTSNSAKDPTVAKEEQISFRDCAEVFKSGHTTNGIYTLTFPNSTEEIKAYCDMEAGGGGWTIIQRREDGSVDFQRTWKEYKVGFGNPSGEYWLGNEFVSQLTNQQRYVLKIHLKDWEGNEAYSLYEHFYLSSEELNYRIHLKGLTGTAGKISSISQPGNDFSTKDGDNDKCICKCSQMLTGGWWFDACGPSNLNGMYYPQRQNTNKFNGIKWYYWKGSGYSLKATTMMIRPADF
In words: ELISA, hANG2-His coated, anti-human-IgG-Fc-HRP detection. In general terms: ELISA stands for enzyme-linked immunosorbent assay.

The target of another test is hANG1-Fc (human, UniProt Q15389 16-498, limits assumed). The test is described as follows: ELISA, 2μg/mL hANG1-Fc coated, anti-human Kappa HRP detection.

Usually IC50 stands for the concentration needed to halve the response being measured. Low values mean greater potency in that assay, high ones weaker potency in that assay.

Sequence of hANG1-Fc (Q15389 other isoform, or with tags, fused parts or gaps limits assumed): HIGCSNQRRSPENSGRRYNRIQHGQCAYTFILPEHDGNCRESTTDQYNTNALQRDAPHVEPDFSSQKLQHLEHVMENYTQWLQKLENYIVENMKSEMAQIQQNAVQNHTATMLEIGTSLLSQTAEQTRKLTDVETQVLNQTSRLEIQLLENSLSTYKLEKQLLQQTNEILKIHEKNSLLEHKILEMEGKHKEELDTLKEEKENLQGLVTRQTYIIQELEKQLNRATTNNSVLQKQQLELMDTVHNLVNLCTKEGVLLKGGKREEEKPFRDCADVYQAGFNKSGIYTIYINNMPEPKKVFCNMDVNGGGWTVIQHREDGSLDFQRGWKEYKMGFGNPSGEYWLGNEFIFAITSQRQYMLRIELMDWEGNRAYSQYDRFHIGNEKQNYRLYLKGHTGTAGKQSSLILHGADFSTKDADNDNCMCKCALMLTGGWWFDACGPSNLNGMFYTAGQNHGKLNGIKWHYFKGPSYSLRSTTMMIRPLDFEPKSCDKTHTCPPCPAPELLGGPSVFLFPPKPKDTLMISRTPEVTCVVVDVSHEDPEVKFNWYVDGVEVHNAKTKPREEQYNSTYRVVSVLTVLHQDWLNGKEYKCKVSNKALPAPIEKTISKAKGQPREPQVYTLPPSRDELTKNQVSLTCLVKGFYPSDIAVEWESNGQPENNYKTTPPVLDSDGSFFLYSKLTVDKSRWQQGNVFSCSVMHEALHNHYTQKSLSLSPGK

B1: 全人源抗体78A74-7 (antibody, human IgG1, kappa, V domains shown)
VH: QVQLVESGGGLVKPGGSLRLSCAASGFTFSSYSMNWVRQAPGKGLEWVAVISYDGSNKYYADSVKGRFTISRDNSKNTLYLQMNSLRAEDTAVYYCAKATLDGYTAGYYYGMDVWGQGTTVTVSS
VL: EIVLTQSPATLSLSPGERATLSCRASQSVSSYLAWYQQKPGQAPRLLIYDASNRATGIPARFSGSGSGTDFTLTISSLEPEDFAVYYCQLMSNWPPEWTFGQGTKVEIKR
notes: Fully human anti-ANG2 antibody in IgG1 format
For B1, the IC50 with 生物素标记的hANG2-Fc蛋白 was 0.226 nM and 0.44 nM. Moreover, the figures for the binding result with 重组蛋白hANG2-His and with hANG1-Fc were “binds” and “no binding”, respectively.

B2: 全人源抗体17 (antibody, human IgG1, kappa, V domains shown)
VH: EVQLVESGGGVVKPGGSLRLSCAASGFTFNKYTINWVRQTPGKGLELVADISSGGDYVNYADSVKGRFTISRDNAKDSVYLLMNGLRAEDTAVYYCARDALTYSNNWLDSWGQGTLVTVSS
VL: DIQLTQSPSFLSASVGDRVTITCRASQGISSYLAWYQQKPGKAPKLLIYAASTLQSGVPSRFSGGGYGTDFTLTISSLQPEDFATYYCQQFESYPLTFGGGTRLEIKR
notes: as for B1
On to B2, for which the binding result is on record as “binds” with 重组蛋白hANG2-His and “no binding” with hANG1-Fc.
